# Source: PMC4503349
# Target: Recombinant human calcineurin, comprising CnAα and CnB subunits (human) (UniProt Q08209)
substance,measurement,value
calmodulin (from UniProt P0DP23 1-149) (natural protein),"CaN phosphatase activity (malachite green, RIIP substrate) in a Ca2+/CM cross-titration; CaN:CM ratio that gives 50% activation at 500 μM Ca2+ (molar ratio (CaN:CM))",1
